Measurements taken from patent publication US20120178124A1, “STEROL SIDE CHAIN-CLEAVING ENZYME PROTEIN AND USE THEREOF” (MITSUBISHI CHEMICAL CORPORATION, priority 2009, published 2012).

How the values were obtained:
Assay type in all cases: biochemical
[1] = Analysis of the optimum pH, conversion of 4-cholesten-3-one by cell-free extract; conditions: for Specific activity: 4-cholesten-3-one to progesterone, 30° C., 14 hours
Protocol: (§1) To 20 ml of the cell suspension prepared in (2) above, 680 μl of X10 Bug Buster (Novagen), 20 μl of Benzonase (Novagen), and 2 ml of 40 mg/ml lysozyme were added, and the obtained mixture was then shaken at 30° C. for 30 minutes to disintegrate the cells. Thereafter, the reaction solution was centrifuged to obtain the cell-free extract. The obtained, approximately 20 ml of cell-free extract was dialyzed against 1 L of Buffer R (20 mM KPB pH 7.4, 20% glycerol) two times, and the deposited precipitate was then removed by centrifugation. The cell-free extract obtained as a supernatant herein was used in the subsequent experiments.
Using the cell-free extract prepared in (3) above, conversion of 4-cholesten-3-one was carried out at various pH values. The reaction solution was prepared, such that 1 ml of Buffer R comprised […] CYP204A1 or […] CYPSS204A, 64 μg/ml spinach-derived ferredoxin, a 0.1 U/ml spinach-derived ferredoxin reductase protein, 3 U/ml glucose dehydrogenase, 60 mM glucose, 50 μg/ml 4-cholesten-3-one, 2 mM NADH, and 2 mM NADPH. Then, 562 μl of 200 mM Buffer having various pH values was added to 1 ml of the reaction solution, so as to adjust the pH of the reaction solution. The reaction was initiated by the addition of NADH and NADPH, and it was carried out at 200 rpm at 30° C. for 14 hours. Thereafter, 1.5 ml of ethyl acetate was added to the reaction solution to terminate the reaction, and extraction was carried out. Then, extraction was carried out again with 0.75 ml of ethyl acetate. The obtained ethyl acetate phase was solidified using evaporator, and the residue was then dissolved in 200.d of methanol. Thereafter, progesterone was detected by HPLC analysis. The enzyme protein activity for conversion of 4-cholesten-3-one to progesterone under various pH conditions is shown in Table 1. The enzyme protein activity was indicated by the amount (g) of progesterone generated per hour per mol of P450.

[2] = Analysis of the optimum temperature, conversion of 4-cholesten-3-one by cell-free extract; conditions: for Specific activity: Tris-HCl pH 7.5, 4 hours, 4-cholesten-3-one to progesterone
Protocol: as §1
Using the cell-free extract prepared in (3) above, conversion of 4-cholesten-3-one was carried out at […]. The reaction solution was prepared, such that 1 ml of the buffer comprised 215 pmol/ml CYP204A1 or 391 pmol/ml CYPSS, 64 μg/ml spinach-derived ferredoxin, 0.1 U/ml spinach-derived ferredoxin reductase protein, 3 U/ml glucose dehydrogenase, 60 mM glucose, 50 μg/ml 4-cholesten-3-one, 2 mM NADH, and 2 mM NADPH. Tris-HCl was added to the reaction solution so as to adjust it to pH 7.5. The reaction was initiated by addition of NADH and NADPH, and it was carried out at 200 rpm for 4 hours, under temperature conditions of 10° C., 15° C., 20° C., 25° C., or 30° C. Thereafter, 1.5 ml of ethyl acetate was added to the reaction solution to terminate the reaction, and extraction was carried out. Then, extraction was carried out again with 0.75 ml of ethyl acetate. The obtained ethyl acetate phase was solidified using evaporator, and the residue was then dissolved in 200 μl of methanol. Thereafter, progesterone was detected by HPLC analysis. The enzyme protein activity for conversion of 4-cholesten-3-one to progesterone under various temperature conditions is shown in Table 1.

[3] = pH stability test of cell-free extract; conditions: for Relative activity: 140 hr versus 0 hr, 6° C.; for Activity 0 hr: immediately after mixing, reaction 15° C., 4 hours, pH 7.5
Protocol: as §1
0.5 ml of the cell-free extract prepared in (3) above was mixed with 0.5 ml of 50 mM buffer having various pH values, pH was then measured, and the mixture was then conserved at 6° C. for 140 hours. […] Using the prepared cell-free extracts having various pH values, conversion of 4-cholesten-3-one was carried out. The reaction was carried out, immediately after the enzyme protein solution was mixed with buffers having various pH values and after the mixed solution was conserved for 140 hours, so as to examine the stability. The reaction solution was prepared, such that 1 ml of the buffer comprised an enzyme protein solution of CYP204A1 or CYPSS having various pH values, 64 μg/ml spinach-derived ferredoxin, 0.1 U/ml spinach-derived ferredoxin reductase protein, 3 U/ml glucose dehydrogenase, 60 mM glucose, 50 μg/ml 4-cholesten-3-one, 2 mM NADH, and 2 mM NADPH. To the reaction solution, 562 μl of 200 mM Tris-HCl was added, so as to adjust the reaction solution to pH 7.5. It was confirmed that the reaction solution maintained pH 7.5, even though enzyme protein solutions having various pH values were added thereto. The reaction was initiated by addition of NADH and NADPH, and it was carried out at 200 rpm at 15° C. for 4 hours. Thereafter, 1.5 ml of ethyl acetate was added to the reaction solution to terminate the reaction, and extraction was carried out. Then, extraction was carried out again with 0.75 ml of ethyl acetate. The obtained ethyl acetate phase was solidified using an evaporator, and the residue was then dissolved in 200 μl of methanol. Thereafter, progesterone was detected by HPLC analysis.

[4] = Kinetics analysis of CYP204A1 and CYPSS; conditions: 4-cholesten-3-one 100 μg/ml (so in the source)

B1: Sphingomonas subterranea NBRC16086 P450scc CYPSS204A (CYPSS), wild type, SEQ ID NO: 2 (Novosphingobium subterraneum) (protein)
chain: MASAAAGADGLPLLDGGVPLLGHLAQFFRDPVSVLKRGYRSKGRLFAMNFMGQRMNVMLGPEHNRFFFEETDKLLSIRESMPFFLKMFSPEFYSFAEMDEYLRQRAIIMPRFKAASMKQYVPVMVEESLNLVERLGEEGEFDLIPTLGPVVMDIAAHSFMGREFHEKLGHEFFELFRDFSGGMEFVLPLWLPTPKMVKSQRAKKKLHAILQSWIDKRRASPLDPPDFFQTMIETKYPDGRAVPDEIIRHLILLLVWAGHETTAGQVSWALADLLQNPGYQQVLREEVASLLGGSDGRALGWEQAVAMEKMDLALRETERLHPVAYMLSRKASADIERDGYRIRKGEFVLLAPSVSHRMEETFRNADAYDPERFNPQNPDAQIESNSLIGFGGGVHRCAGVNFARMEMKVLVAILLQNFDMELIDEVRPIAGASTYWPAQPCRVRYKRRKLDGAGGSADVAALAKAAGCPAHA
Specific activity ([1]; KPB pH 6.2): 0 g/h/mol
Specific activity ([1]; KPB pH 6.7): 19 g/h/mol
Specific activity ([1]; KPB pH 7.1): 21 g/h/mol
Specific activity ([1]; KPB pH 7.4): 0 g/h/mol
Specific activity ([1]; KPB pH 7.9): 0 g/h/mol
Specific activity ([1]; TES pH 6.6): 0 g/h/mol
Specific activity ([1]; TES pH 6.8): 16 g/h/mol
Specific activity ([1]; TES pH 7.3): 76 g/h/mol
Specific activity ([1]; TES pH 7.5): 165 g/h/mol
Specific activity ([1]; TES pH 8.0): 168 g/h/mol
Specific activity ([1]; Tris-HCl pH 7.5): 301 g/h/mol
Specific activity ([1]; Tris-HCl pH 8.2): 269 g/h/mol
Specific activity ([1]; Tris-HCl pH 8.7): 40 g/h/mol
optimum pH (pH of highest activity) ([1]; conversion of 4-cholesten-3-one to progesterone): 7.5
Specific activity ([2]; 10° C.): 918 g/h/mol
Specific activity ([2]; 15° C.): 1279 g/h/mol
Specific activity ([2]; 20° C.): 1133 g/h/mol
Specific activity ([2]; 25° C.): 936 g/h/mol
Specific activity ([2]; 30° C.): 465 g/h/mol
optimum temperature for action (temperature of highest activity) ([2]; conversion of 4-cholesten-3-one to progesterone, pH 7.5): 15 °C
Relative activity ([3]; AcB pH 6.0): 37%
Activity 140 hr ([3]; AcB pH 6.0, conserved at 6° C. for 140 hours): 2.7 µg/mL
Activity 0 hr ([3]; AcB pH 6.0): 7.3 µg/mL
Relative activity ([3]; KPB pH 6.7): 61%
Activity 140 hr ([3]; KPB pH 6.7, conserved at 6° C. for 140 hours): 4.3 µg/mL
Activity 0 hr ([3]; KPB pH 6.7): 7.1 µg/mL
Relative activity ([3]; KPB pH 7.2): 73%
Activity 140 hr ([3]; KPB pH 7.2, conserved at 6° C. for 140 hours): 5.3 µg/mL
Activity 0 hr ([3]; KPB pH 7.2): 7.3 µg/mL
Relative activity ([3]; KPB pH 7.6): 85%
Activity 140 hr ([3]; KPB pH 7.6, conserved at 6° C. for 140 hours): 5.5 µg/mL
Activity 0 hr ([3]; KPB pH 7.6): 6.5 µg/mL
pH at which most stable ([3]; KPB, conserved at 6° C. for 140 hours): 7.6
Relative activity ([3]; TES pH 7.5): 71%
Activity 140 hr ([3]; TES pH 7.5, conserved at 6° C. for 140 hours): 5.2 µg/mL
Activity 0 hr ([3]; TES pH 7.5): 7.3 µg/mL
Relative activity ([3]; Tris pH 7.4): 63%
Activity 140 hr ([3]; Tris pH 7.4, conserved at 6° C. for 140 hours): 5 µg/mL
Activity 0 hr ([3]; Tris pH 7.4): 8 µg/mL
Relative activity ([3]; Tris pH 8.1): 65%
Activity 140 hr ([3]; Tris pH 8.1, conserved at 6° C. for 140 hours): 4.5 µg/mL
Activity 0 hr ([3]; Tris pH 8.1): 6.9 µg/mL
Relative activity ([3]; Tris pH 8.9): 51%
Activity 140 hr ([3]; Tris pH 8.9, conserved at 6° C. for 140 hours): 3.7 µg/mL
Activity 0 hr ([3]; Tris pH 8.9): 7.3 µg/mL
enzyme protein activity in comparison with that at 10 μM 4-cholesten-3-one [4]: 90%
